Experimental data: article PMC5124963, “Negative feedback regulation of ABA biosynthesis in peanut (Arachis hypogaea): a transcription factor complex inhibits AhNCED1 expression during water stress”

Molecular target: T1, GST-AhAREB1 (Arachis hypogaea, UniProt G4X5C6 1-445)
T1 sequence: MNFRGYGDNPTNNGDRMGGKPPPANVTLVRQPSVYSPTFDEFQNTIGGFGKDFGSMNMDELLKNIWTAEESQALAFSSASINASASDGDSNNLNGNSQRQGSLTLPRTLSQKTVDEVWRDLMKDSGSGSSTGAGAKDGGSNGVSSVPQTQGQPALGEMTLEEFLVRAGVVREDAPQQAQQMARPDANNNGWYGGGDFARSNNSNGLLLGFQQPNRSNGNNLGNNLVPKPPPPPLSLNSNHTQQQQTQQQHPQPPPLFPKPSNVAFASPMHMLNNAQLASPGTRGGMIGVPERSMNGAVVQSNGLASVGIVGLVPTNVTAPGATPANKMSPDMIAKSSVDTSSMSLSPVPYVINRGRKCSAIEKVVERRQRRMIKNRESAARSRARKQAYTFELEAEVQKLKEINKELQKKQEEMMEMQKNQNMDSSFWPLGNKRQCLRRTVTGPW
Assay: EMSA; LightShift Chemiluminescent EMSA kit (Pierce); buffer, salt, pH and temperature not stated
Details: protein: recombinant; tags: N-terminal GST (pGEX-4T-1); chain copies: 2; label: biotin

B1: WT probe, AhNCED1 promoter ABRE/NACRE (-1367) (dsDNA)
DNA 1: CTCATCAATTATCACGTGTGATTGCTCTCA
DNA 2: TGAGAGCAATCACACGTGATAATTGATGAG
binding result: binds
